# Experimental data from US20250144178A1, “PHARMACEUTICAL COMPOSITION FOR CANCER TREATMENT COMPRISING FUSION PROTEIN INCLUDING IL-12 AND ANTI-FAP ANTIBODY AND ANTICANCER AGENT” (KANAPH THERAPEUTICS INC., priority 2022, published 2025).
# T1: recombinant mouse FAP (Mus musculus, UniProt P97321)
# T1 sequence (P97321 1-761): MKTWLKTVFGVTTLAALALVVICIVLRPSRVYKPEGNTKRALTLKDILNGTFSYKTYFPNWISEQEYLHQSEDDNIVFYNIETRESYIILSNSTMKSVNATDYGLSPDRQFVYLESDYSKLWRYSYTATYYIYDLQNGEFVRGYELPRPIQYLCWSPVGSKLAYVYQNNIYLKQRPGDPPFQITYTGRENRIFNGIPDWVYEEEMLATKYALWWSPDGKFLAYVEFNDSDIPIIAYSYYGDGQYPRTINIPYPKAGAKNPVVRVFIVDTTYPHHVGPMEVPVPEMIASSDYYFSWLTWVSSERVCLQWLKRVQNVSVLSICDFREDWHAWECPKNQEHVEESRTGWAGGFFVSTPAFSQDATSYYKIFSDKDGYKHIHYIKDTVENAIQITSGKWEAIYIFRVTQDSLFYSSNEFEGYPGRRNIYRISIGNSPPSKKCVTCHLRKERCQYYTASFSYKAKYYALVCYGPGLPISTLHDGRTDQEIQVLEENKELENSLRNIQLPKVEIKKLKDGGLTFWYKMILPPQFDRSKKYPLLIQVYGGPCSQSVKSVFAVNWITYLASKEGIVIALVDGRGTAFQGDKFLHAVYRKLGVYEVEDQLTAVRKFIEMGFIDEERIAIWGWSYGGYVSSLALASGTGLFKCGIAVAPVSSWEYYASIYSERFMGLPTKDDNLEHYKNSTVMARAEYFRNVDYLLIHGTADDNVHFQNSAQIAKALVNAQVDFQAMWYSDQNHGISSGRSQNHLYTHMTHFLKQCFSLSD
# What was measured:
# recombinant mouse FAP = target: T1, recombinant mouse FAP; assay: Surface plasmon resonance binding to recombinant mouse FAP; conditions: SPR, 2 μg/ml protein, FIGS. 13 and 14
# Experimental: The surface of the CM5 chip was activated with a 1:1 mixture of […] (N-hydroxysuccinimide) and […] (1-Ethyl-3-(3-dimethylaminopropyl) carbodiimide), and 25 μg/ml of anti-mouse IgG (Fc) antibody was immobilized for 400 seconds at a rate of 10 μl/min. The remaining active ester groups were blocked with 1 M ethanolamine. T1.01m, T1.02m and T1.03m were diluted to 2 μg/ml and reacted on the CM5 chip immobilized with the anti-mouse IgG (Fc) antibody. The recombinant mouse FAP was diluted to 200 nM in 1×HBS-EP+buffer solution and diluted by serial dilution. The diluted recombinant mouse FAP was reacted at a rate of 30 μl/min. The association and dissociation times were 180 seconds and 400 seconds, respectively. After the dissociation, stabilization was performed for 60 seconds, and then a regeneration was performed for 30 seconds with a 10 mM glycine pH 1.5 solution at a rate of 30 μl/min.
# HEK-Blue IL-12 cells = assay: Signaling ability in IL-12 recognizing cells (STAT4 inducible SEAP reporter); assay type: cell-based, human; conditions: serial dilution from 4 nM, 24 hours, FIG. 18
# Method in brief: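 HEK293 cells stably carrying IL-12 receptor and STAT4-inducible SEAP reporter, plated at 2.8×10^5 cells/ml, treated 24 h with serially diluted IL-12 or variants (4 nM starting solution). Secreted SEAP in supernatant read with QUANTI-Blue at 620 nm.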
# [1] = test system: FAP-overexpressing CT26 cells; assay: Tumor growth inhibition, FAP-overexpressing CT26 model, repeated i.p. dosing; assay type: in vivo, BALB/c mice; conditions: 18 days after administration, control 50 μg T1.24m
# Experimental: In order to prepare an mouse FAP-expressing tumor animal model, FAP overexpression was induced in CT26, a mouse colorectal cancer cell line. Specifically, the FAP-overexpressing CT26 cells in culture were resuspended in Hanks' Balanced salt solution (HBSS, Gibco), and then each 100 μl of 1×10^6 tumor cells per each mouse was transplanted into the subcutaneous region of the left dorsal side of 6-week-old BALB/c mice using a 1 cc syringe (25G) to obtain a mouse FAP-expressing colorectal cancer animal model. The tumor size was measured using a digital vernier caliper by measuring the short axis and long axis of the tumor, and the tumor size was measured twice a week using the calculation formula of (short axis, mm) 2×(long axis, mm)×0.5.
# Next, for drug efficacy evaluation, when the size of the tumor reached 100 mm^3, the mice were randomly divided into groups. Each experimental group consisted of 8 animals, and as a control, each 100 μl of 50 μg of T1.24m was intraperitoneally administered four times at an interval of 3 days. In the test group, each 100 μl of 10 μg and 100 μg of T1.01m, and 2 μg, 10 μg and 100 μg of T1.02m, respectively, were intraperitoneally administered four times at an interval of 3 days to evaluate the tumor growth inhibitory ability.
# [2] = test system: mouse FAP overexpressing B16F10 melanoma; assay: Melanoma model, mouse FAP overexpressing B16F10; assay type: in vivo, C57BL/6J mice; conditions: 10 μg and 100 μg i.v. once, control PBS, FIG. 30
# Experimental: In order to identify the anticancer effect through immune activation of the fusion protein, mouse FAP was overexpressed in the mouse melanoma cell line B16F10, which is known to have little immune cell infiltration, and then transplanted into C57BL/6J mice, and the tumor growth inhibitory ability was evaluated.
# Specifically, the cells in culture were resuspended in Hanks' Balanced salt solution (HBSS, Gibco), and then 100 μl of 1×10^6 tumor cells per each mouse were transplanted into the subcutaneous region of the left the dorsal flank side of 6-week-old C57BL/6J mice.
# Next, for drug efficacy evaluation, when the size of the tumor reached 70 to 100 mm^3, the mice were randomly divided into groups. As the control, PBS was administered, and as the test group, T1.03m was intravenously administered once at a dose of 10 μg and 100 μg.
molecule,measurement,setting,value
"T1.01m: K&H bispecific: anti-mu FAP/mu IL-12, mu IgG2a DANG (seq18, seq19, seq20) (antibody) heavy: QVQLQQSGAELARPGASVNLSCKASGYTFTNNGINWLKQRTGQGLEWIGEIYPRSTNTLYNEKFKGKATLTADRSSNTAYMELRSLTSEDSAVYFCARTLTAPFAFWGQGTLVTVSAAKTTAPSVYPLAPVCGDTTGSSVTLGCLVKGYFPEPVTLTWNSGSLSSGVHTFPAVLQSDLYTLSSSVTVTSSTWPSQSITCNVAHPASSTKVDKKIEPRGPTIKPCPPCKCPAPNLLGGPSVFIFPPKIKDVLMISLSPIVTCVVVAVSEDDPDVQISWFVNNVEVHTAQTQTHREDYGSTLRVVSALPIQHQDWMSGKEFKCKVNNKDLPAPIERTISKPKGSVRAPQVYVLPPPEEEMTKKQVTLWCMVTDFMPEDIYVEWTNNGKTELNYKNTEPVLDSDGSYFMYSKLRVEKKNWVERNSYSCSVVHEGLHNHHTTKSFSRTPGK light: QIVLTQSPAIMSASPGEKVTMTCSASSGVNFMHWYQQKSGTSPKRWIFDTSKLASGVPARFSGSGSGTSYSLTISSMEAEDAATYYCQQWSFNPPTFGGGTKLEIKRADAAPTVSIFPPSSEQLTSGGASVVCFLNNFYPKDINVKWKIDGSERQNGVLNSWTDQDSKDSTYSMSSTLTLTKDEYERHNSYTCEATHKTSTSPIVKSFNRNEC MWELEKDVYVVEVDWTPDAPGETVNLTCDTPEEDDITWTSDQRHGVIGSGKTLTITVKEFLDAGQYTCHKGGETLSHSHLLLHKKENGIWSTEILKNFKNKTFLKCEAPNYSGRFTCSWLVQRNMDLKFNIKSSSSSPDSRAVTCGMASLSAEKVTLDQRDYEKYSVSCQEDVTCPTAEETLPIELALEARQQNKYENYSTSFFIRDIIKPDPPKNLQMKPLKNSQVEVSWEYPDSWSTPHSYFSLKFFVRIQRKKEKMKETEEGCNQKGAFLVEKTSTEVQCKGGNVCVQAQDRYYNSSCSKWACVPCRVRSGGGGSGGGGSGGGGSRVIPVSGPARCLSQSRNLLKTTDDMVKTAREKLKHYSCTAEDIDHEDITRDQTSTLKTCLPLELHKNESCLATRETSSTTRGSCLPPQKTSLMMTLCLGSIYEDLKMYQTEFQAINAALQNHNHQQIILDKGMLVAIDELMQSLNHNGETLRQKPPVGEADPYRVKMKLCILLHAFSTRVVTINRVMGYLSSAGGGGSGGGGSEPRGPTIKPCPPCKCPAPNLLGGPSVFIFPPKIKDVLMISLSPIVTCVVVAVSEDDPDVQISWFVNNVEVHTAQTQTHREDYGSTLRVVSALPIQHQDWMSGKEFKCKVNNKDLPAPIERTISKPKGSVRAPQVYVLPPPEEEMTKKQVTLSCAVTDFMPEDIYVEWTNNGKTELNYKNTEPVLDSDGSYFMVSKLRVEKKNWVERNSYSCSVVHEGLHNHHTTKSFSRTPGK",Binding to recombinant mouse FAP,recombinant mouse FAP,may bind to recombinant mouse FAP to specifically target FAP
same,IL-12 recognition / STAT4 reporter gene expression (620 nm absorbance),HEK-Blue IL-12 cells,"IL-12 was recognized, and STAT4 expressed a reporter gene by inducing phosphorylation"
same,tumor growth inhibitory ability compared to control,[1]; 10 μg i.p. four times at an interval of 3 days,84.9%
same,tumor growth inhibitory ability compared to control,[1]; 100 μg i.p. four times at an interval of 3 days,85.6%
same,tumor growth inhibitory ability compared to the control,[2],high tumor growth inhibitory ability
